# Source: US20240115720A1, “ANTIBODY-PYRROLOBENZODIAZEPINE DERIVATIVE CONJUGATE” (MEMORIAL SLOAN KETTERING CANCER CENTER, priority 2021, published 2024)
# B1: SC16LD6.5: anti-DLL3 ADC: antibody hSC16.56 (SC16) conjugated with drug linker SG3249 by maleimide conjugation (conjugate, chains of the INN, looked up)
# VH: QVQLVQSGAEVKKPGASVKVSCKASGYTFTNYGMNWVRQAPGQGLEWMGWINTYTGEPTYADDFKGRVTMTTDTSTSTAYMELRSLRSDDTAVYYCARIGDSSPSDYWGQGTLVTVSS
# VL: EIVMTQSPATLSVSPGERATLSCKASQSVSNDVVWYQQKPGQAPRLLIYYASNRYTGIPARFSGSGSGTEFTLTISSLQSEDFAVYYCQQDYTSPWTFGQGTKLEIK
# modifications: SG3249 PBD drug-linker (tesirine)
# notes: anti-DLL3 ADC: antibody hSC16.56 (SC16) conjugated with drug linker SG3249 by maleimide conjugation
# Assays:
# [1] = tested on: DLL3-positive human small cell lung cancer cell line NCI-H510A; test: In vivo antitumor effect, NCI-H510A xenograft (Example 17-3); details: BALB/c nude mice, 0.2 mg/kg intravenous, single dose on Day 15, FIG. 21
# Experimental: The antitumor effects of the antibody-drug conjugates were evaluated using animal models derived from immunodeficient mice by the inoculation of DLL3-positive human tumor cell line cells. 4- to 5-week-old BALB/c nude mice (CAnN. Cg-Foxn1 [nu]/CrlCrlj [Foxn1nu/Foxn1nu], Charles River Laboratories Japan inc.) were acclimatized for 3 days or longer under SPF conditions before use in the experiment. The mice were fed with a sterilized solid diet (FR-2, Funabashi Farms Co., Ltd) and given sterilized tap water (which had been prepared by adding a 5 to 15 ppm sodium hypochlorite solution to tap water). The long diameter and short diameter of the inoculated tumor were measured twice a week using electronic digital calipers (CD-15CX, Mitutoyo Corp.), and the volume of the tumor was then calculated according to the following expression.
# Tumor volume (mm^3=½×Long diameter (mm)×[Short diameter (mm)]^2
# Each antibody-drug conjugate was diluted with ABS buffer (10 mM acetate buffer, 5% sorbitol, pH 5.5) (Nacalai Tesque, Inc.), and the dilution was intravenously administered at a dose shown in each study to the tail of each mouse. ABS buffer was administered in the same manner as above to a control group (vehicle group). Six mice per group were used in the experiment. The group with the over 3000 mm^3 estimated tumor volume were euthanized at that time. […]
# [2] = tested on: DLL3-positive human small cell lung cancer cell line NCI-H82; test: In vivo antitumor effect, NCI-H82 xenograft (Example 22-3); details: nude mice, 0.4 mg/kg intravenous, single dose, FIG. 28
# Text: (§1) Substantially the same protocol as in Example 17 was used.
# (§2) The DLL3-positive human small cell lung cancer cell line NCI-H82 (ATCC) was suspended in Matrigel (Corning Inc.), and the cell suspension was subcutaneously inoculated at a dose of 1×10^6 cells to the right flank region of each female nude mouse. After the tumors were established, the mice were randomly grouped (6 mice per group). On the day of grouping, each of the 2 antibody-drug conjugates (H2-C8-A-3-Conjugate, H10-O18-A-3-Conjugate), the reference anti-DLL3 antibody-Conjugate (SC16LD6.5) or anti-LPS antibody-Conjugate was intravenously administered at a dose of 0.4 mg/kg to the tail of each mouse. The abscissa depicts the days after administration, and the ordinate depicts estimated tumor volume. The error range depicts a SE value.
# [3] = tested on: DLL3-positive human small cell lung cancer cell line NCI-H510A; test: In vivo antitumor effect, NCI-H510A xenograft (Example 22-1); details: nude mice, 0.2 mg/kg intravenous, single dose, FIG. 26
# Text: as §1
# as §2, with “NCI-H510A” for “NCI-H82”, “2.3×10^6” for “1×10^6”, “(SC16LD6.5),” for “(SC16LD6.5)”, “0.2” for “0.4”
molecule,measurement,setting,value
B1,antitumor effect (estimated tumor volume),[1],some tumor growth inhibition without tumor regression effect
same,antitumor effect (estimated tumor volume),[2],some tumor growth inhibition without tumor regression effect
same,antitumor effect (estimated tumor volume),[3],some tumor growth inhibition without tumor regression effect
